Measured values reported in US20120148657A1, “Lipoxygenase and Its Use in Wound Healing” (priority 2009, published 2012).

B1: huLOX: human epidermal lipoxygenase (human 12R LOX) expressed from plasmid phuLOX, comparator (protein, UniProt O75342 1-701, looked up)
Arachidonate 12-lipoxygenase, …: MATYKVRVATGTDLLSGTRDSISLTIVGTQGESHKQLLNHFGRDFATGAVGQYTVQCPQDLGELIIIRLHKERYAFFPKDPWYCNYVQICAPNGRIYHFPAYQWMDGYETLALREATGKTTADDSLPVLLEHRKEEIRAKQDFYHWRVFLPGLPSYVHIPSYRPPVRRHRNPNRPEWNGYIPGFPILINFKATKFLNLNLRYSFLKTASFFVRLGPMALAFKVRGLLDCKHSWKRLKDIRKIFPGKKSVVSEYVAEHWAEDTFFGYQYLNGVNPGLIRRCTRIPDKFPVTDDMVAPFLGEGTCLQAELEKGNIYLADYRIMEGIPTVELSGRKQHHCAPLCLLHFGPEGKMMPIAIQLSQTPGPDCPIFLPSDSEWDWLLAKTWVRYAEFYSHEAIAHLLETHLIAEAFCLALLRNLPMCHPLYKLLIPHTRYTVQINSIGRAVLLNEGGLSAKGMSLGVEGFAGVMVRALSELTYDSLYLPNDFVERGVQDLPGYYYRDDSLAVWNALEKYVTEIITYYYPSDAAVEGDPELQSWVQEIFKECLLGRESSGFPRCLRTVPELIRYVTIVIYTCSAKHAAVNTGQMEFTAWMPNFPASMRNPPIQTKGLTTLETFMDTLPDVKTTCITLLVLWTLSREPDDRRPLGHFPDIHFVEEAPRRSIEAFRQRLNQISHDIRQRNKCLPIPYYYLDPVLIENSISI
B2: AmbLOXe: epidermal lipoxygenase from axolotl, Seq. ID. Nos. 1 and 2, EMBL Accession No. EU814616; tested by expression plasmid transfection (protein, listed as Ambystoma mexicanum)
chain: MVDEYRIKEDRDLGEILLIRLHKGPFSIFPEDNWYCMYVTVTSPGGVIYHFPCYRWIEGYPTVELAEGTAMLSSASNLHVTLKKQRESDLEQRRKVYRWKVYHPSFPKCIDVANNDELDKDAKYSITKTVHFVINKNVSNIAIKLKGFDGRQESWKSFDELKRVYWTLKTAKSEYVSHHWKEDAFFGYQYLNGPDPTLIKRCNKIPGNFPVTDEMVSYSLGASTSLEKELQKGNIYIVDHKMMEGLRANVLNGKQQYMAAPLCLFYRTPKDEVIPLAIQLNQTPGSETPLFLPSDNEWDWILAKIWVRSTSFAFHQAVSHFLRTHVFAEVFCLATLRQLPMAHPLYKLLVPHLRYTLQINVLARERLIGPGGAFDKNTAVGIAGIAELIKRDMETLKYSTLCLPENLQSREVESLPHFYYRDDGMKIWLAIESYVSGIVDYYYKSEESIQKDPELQAWVAEIFKEGFLERKSSGIPSSLETRVELIKYLTMVIFTCSAEHAAVNSGQFDFLSWMPNGPSTMRQPPPKTKGLATMESVLEALPEVGITTNIMTTVWTLSKEPGDMRPLGTYPDEHFTEEGPKQCIRAFQERLSEISREIEHRNASLPIKYNYMNPKVIENSVSI

How the values were obtained:
epithelial Axolotl cells = assay: In vitro wound healing model: proliferation of epithelial cells from Axolotl skin biopsies (Celltiter blue); assay type: cell-based; conditions: for Epithelial cell proliferation: 1 μM MK-886 and 60 μM NDGA, respectively, plates incubated two days, Celltiter blue fluorescence
Excerpt: In order to investigate the influence of endogenous lipoxygenase activity on the migration and proliferation of epithelial Axolotl cells, skin biopsies with 2 mm diameter were taken form Axolotl tail skin. The skin biopsies were placed in cell culture dishes coated with bovine collagen I to allow for cell migration and proliferation in an in vitro wound healing model. The wound healing is observable by […] of epithelial cell growing from borders of the skin biopsies. The proliferation rates were determined by addition of Celltiter blue (Promega), an assay for detection of metabolic activity as an indirect measurement of cell proliferation based on Resazurin/Resofurin. Two known lipoxygenase inhibitors for the human lipoxygenase were used to examine the effect of lipoxygenase activity on cell proliferation (1 μM MK-886 and 60 μM NDGA, respectively). […] That is, the plates were incubated for two days to ensure proliferation of epidermal cells. Then, the number of metabolizing cells was determined by Resozuran-Resofurin exchange (Celltiter blue, Promega, Madison, USA). 2 μl Resozuran solution was added to each well for two hours and the fluorescence was read in a multiplate reader at 520 nm. The detected fluorescence was expressed in relative fluorescent units (RFU), means and standard deviation were calculated from triplicates with Microsoft Excel and tested for statistical significance using student's T-test. Experiments were repeated at three independent times to ensure reproducibility.

[1] = tested on: transiently transfected cell populations; assay: Scratch assay of transiently transfected cell populations treated with lipoxygenase inhibitor; assay type: cell-based, human
Procedure: (§1) The coding sequence of AmbLOXe was subcloned in frame into the mammalian expression vector pTriEx-1 (Novagen). Plasmids were purified from transformed DH5α using the GenElute plasmid purification Kit (Sigma). Human osteosarcoma cells U2-OS or human spontaneously immortalized keratinocyte cells HaCaT (ATCC) were seeded into 100 mm cell culture dishes and grown over night to 40-50% confluence. Cells were transiently transfected with Fugene6 (Roche, Mannheim, Germany) following the instructions of the manufacturer. Briefly, 18 μl of the reagent were diluted with 600 μl serum-free medium and incubated at room temperature. After 5 min 6 μg of a 1:1 mixture of pTriEx-AmbLOXe and pEGFP-C3 (Clontech), which encodes Green Fluorescent Protein (GFP), were supplemented and incubated for additional 15 min. The transfection complex was added to the cell dishes in a dropwise manner. Cells were incubated for 24 hours before being analyzed for transfection efficiency by detection of GFP positive cells in a flow cytometer (FC-500, Beckman-Coulter, Fullerton, Calif., USA). Only cell populations were used in which about 25% GFP positive cells (U2-OS) or 12% GFP positive cells (HaCaT) could be detected. The cells were seeded into a six well plate until they reached confluence. The monolayer was then wounded with a disposable plastic pipet tip (10 μl-100 μl volume). The cells ere incubated in DMEM High Glucose (Biochrom, Berlin, Germany) supplemented with 10% FCS). The scratches were documented by microphotography and incubated for 16 hours. Then the scratches were again photographed and the remaining areas were measured using CellD (Olympus) software program. All experiments were carried out in quadruplicates and repeated at four independent times. Means and standard deviation were calculated and tested for statistical significance with ANOVA followed by Bonferroni's posthoc test.
In order to determine the influence of lipoxygenase inhibitor on the transiently transfected cell populations, cells transfected with empty vector (control) and scratched cell monolayers transfected with vectors containing human 12R LOX and AmbLOXe, respectively, received an overnight treatment with NHGA.

[2] = tested on: Mice having a full thickness skin wound; assay: Full thickness skin wound animal model (injection of transfected murine embryonic fibroblasts); assay type: in vivo; conditions: for wound closure (FIG. 5): determined after day 3 and day 7, transfected murine embryonic fibroblasts; for wound size: compared to human lipoxygenase, empty vector and untreated groups, C57/BR6 female mice
Procedure: That is, murine embryonic fibroblasts were seeded in cell culture dishes to 50% confluence and were transfected with expression plasmids encoding two different types of lipoxygenase (pAmbLOXe, phuLOX), an empty vector was used as control. After 24 hours, the cells were washed and trypsinated. Cells in an amount of 100,000 cells/ml in PBS were resuspended and 200 μl cell suspension was injected into area adjacent to a wound of a full thickness skin wound. Said full thickness skin wound was prepared in advance using mice (C57/BR6 female) where the back was shaved and the skin was disinfected. Thereafter, a full thickness skin wound was set using a 8 mm biopsy punch, resulting in a 50 mm^2 defect. A control group was prepared not treated with any cell suspension. After day 3 and day 7 a photo was taken from the wound and the reduction of wound size was measured and determined statistically.

U2-OS cells = assay: Scratch assay for wound closure in transfected U2-OS cells; assay type: cell-based, human; conditions: for perimeter size of remaining scratch area (mean value): U2-OS cell populations transfected; for perimeter size of remaining scratch area (mean value) / wound closure in scratch assay (FIG. 2): after 16 hours incubation; for scratch width reduction: U2-OS cells transfected with expression plasmid, 16 hours incubation; for wound closure in scratch assay (FIG. 2): U2-OS cells transfected
Excerpt: To compare the effect of epidermal lipoxygenase of human and Axolotl origin, a human cell line, U2-OS was transfected with expression plasmids encoding for the two types of lipoxygenase (pAmbLOXe, phuLOX) in combination with a vector encoding for GFP (pEGFP-C3, Clontech) as a reporter for transfection efficiency. Controls were transfected with empty vector and pEGFP-C3.
as §1
A cDNA fragment coding for full-length AmbLOXe was cloned in frame into the mammalian expression vector pTriEx-1 and transfected together with an expression plasmid for EGFP into the U2-OS cell line to evaluate a possible influence of AmbLOXe expression in a mammalian model system. Only cell populations with a transfection efficiency of about 25% (U2-OS), respectively 12% (HaCaT) were used for all assays and seeded to confluent monolayers which subsequently were wounded with scratches.
The remaining scratch areas photographed after 16 hours incubation were used to determine the influence of AmbLOXe expression on mammalian cell migration. While no AmbLOXe expression could be observed in U2-OS cell populations transfected with an empty vector, and in U2-OS cell populations transfected with huLOX, AmbLOXe expression was detected in U2-OS cell populations transfected with AmbLOXe encoding plasmids. A perimeter size reduction to a mean value of 24806.26 μm in the cell populations transfected with an empty vector was found; while cell populations containing AmbLOXe expressing cells and cell populations containing cells expressing human 12R LOX reduced the photographed scratch area to mean values of 517.46 μm and 2086.86 μm, respectively.

[3] = tested on: HaCaT keratinocyte cell line; assay: HaCaT monolayer scratch assay (cell migration); assay type: cell-based, human; conditions: HaCaT populations transfected; 16 hours incubation; compared to empty vector (p=0.0035) and huLOX (p=0.028) transfected populations
Procedure: The coding sequence of AmbLOXe was subcloned in frame into the mammalian expression vector pTriEx-1 (Novagen). Plasmids were purified from transformed DH5α using the GenElute plasmid purification Kit (Sigma). Human osteosarcoma cells U2-OS or human spontaneously immortalized keratinocyte cells HaCaT (ATCC) were seeded into 100 mm cell culture dishes and grown over night to 40-50% confluence. Cells were transiently transfected with Fugene6 (Roche, Mannheim, Germany) following the instructions of the manufacturer. Briefly, 18 μl of the reagent were diluted with 600 μl serum-free medium and incubated at room temperature. […] Cells were incubated for 24 hours before being analyzed for transfection efficiency by detection of GFP positive cells in a flow cytometer (FC-500, Beckman-Coulter, Fullerton, Calif., USA). Only cell populations were used in which about 25% GFP positive cells (U2-OS) or 12% GFP positive cells (HaCaT) could be detected. […] Then the scratches were again photographed and the remaining areas were measured using CellD (Olympus) software program. […] Means and standard deviation were calculated and tested for statistical significance with ANOVA followed by Bonferroni's posthoc test. […]
As described for the transfected U2-OS populations cellular migration was determined in HaCaT monolayer scratch assays.

Row | Molecule | Epithelial cell proliferation (epithelial Axolotl cells) | wound closure (FIG. 5) [2] | perimeter size of remaining scratch area (mean value) (U2-OS cells) [μm] | scratch width reduction (U2-OS cells) [%] | wound closure in scratch assay (FIG. 2) (U2-OS cells) | further results
1 | CC(C)c1ccc2c(c1)c(SC(C)(C)C)c(CC(C)(C)C(=O)O)n2Cc1ccc(Cl)cc1 [MK-886] | significantly reduced |  |  |  |  | effect on the Axolotl epithelial cells compared with NDGA (epithelial Axolotl cells; treatment of MK-886): equal effect
2 | CC(Cc1ccc(O)c(O)c1)C(C)Cc1ccc(O)c(O)c1 (stereo not drawn) [NDGA] | significantly reduced |  |  |  |  | 
3 | CC(Cc1ccc(O)c(O)c1)C(C)Cc1ccc(O)c(O)c1 (stereo not drawn) [NHGA] |  |  |  |  |  | scratch area (mean value) ([1]; cell populations expressing AmbLOXe, overnight treatment with NHGA): 4428.33 μm; migration behaviour compared to the solvent treated monolayers ([1]; cells expressing huLOX, overnight treatment with NHGA): no significant differences; migration behaviour compared to the solvent treated monolayers ([1]; empty vector transfected cells, overnight treatment with NHGA): no significant differences
4 | B1 |  | comparable with the control groups | 2086.86 | 56.75 | has not finished yet | 
5 | B2 |  | significant reduction | 517.46 | 89.94 | substantially completed | wound size ([2]; day 3): reduced dramatically; wound size ([2]; day 7): reduced dramatically; measured wound scratch (mean value) ([1]; solvent treated cell populations expressing AmbLOXe): 3388.99 μm; remaining scratch perimeter size [3]: significantly smaller
